Assay results taken from publication PMC11248248, “Dual protection by Bcp1 and Rkm1 ensures incorporation of uL14 into pre-60S ribosomal subunits” (The Journal of Cell Biology, 2024).

T1: GST-Kap121 (S. cerevisiae, UniProt P32337 1-1089)
T1 construct: importin Kap121 (Pse1), S. cerevisiae; also called karyopherin; importin; source: recombinant, purified on glutathione beads; not shown: GST, N-terminal, kept
T1 sequence (looked up): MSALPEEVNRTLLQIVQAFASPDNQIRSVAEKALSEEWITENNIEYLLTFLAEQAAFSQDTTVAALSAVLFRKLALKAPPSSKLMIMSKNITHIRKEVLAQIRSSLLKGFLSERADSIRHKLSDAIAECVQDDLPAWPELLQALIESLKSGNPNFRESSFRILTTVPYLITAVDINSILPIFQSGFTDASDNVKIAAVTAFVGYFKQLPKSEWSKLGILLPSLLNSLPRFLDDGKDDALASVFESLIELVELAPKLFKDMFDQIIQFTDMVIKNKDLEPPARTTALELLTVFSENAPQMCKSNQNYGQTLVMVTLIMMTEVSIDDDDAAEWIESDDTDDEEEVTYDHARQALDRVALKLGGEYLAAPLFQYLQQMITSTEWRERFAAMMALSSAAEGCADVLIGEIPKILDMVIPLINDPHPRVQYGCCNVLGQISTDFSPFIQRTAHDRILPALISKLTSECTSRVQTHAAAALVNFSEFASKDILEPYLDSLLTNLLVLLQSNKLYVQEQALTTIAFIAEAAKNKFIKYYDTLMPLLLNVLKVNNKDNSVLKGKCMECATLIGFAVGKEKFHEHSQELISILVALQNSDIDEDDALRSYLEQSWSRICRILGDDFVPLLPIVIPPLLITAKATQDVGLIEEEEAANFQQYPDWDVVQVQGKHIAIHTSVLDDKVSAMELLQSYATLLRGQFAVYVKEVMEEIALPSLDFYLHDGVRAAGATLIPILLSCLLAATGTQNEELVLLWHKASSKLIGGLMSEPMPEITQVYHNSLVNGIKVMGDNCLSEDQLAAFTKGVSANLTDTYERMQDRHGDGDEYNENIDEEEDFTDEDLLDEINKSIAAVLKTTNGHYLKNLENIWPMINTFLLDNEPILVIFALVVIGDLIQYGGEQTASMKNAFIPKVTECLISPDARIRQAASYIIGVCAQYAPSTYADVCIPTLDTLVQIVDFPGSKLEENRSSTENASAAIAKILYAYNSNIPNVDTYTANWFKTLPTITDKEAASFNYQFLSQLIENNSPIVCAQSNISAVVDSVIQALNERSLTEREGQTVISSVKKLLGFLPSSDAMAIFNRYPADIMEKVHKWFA

T2: Rkm1-His6 (S. cerevisiae, UniProt Q08961 1-583)
T2 construct: Rkm1, ribosomal lysine methyltransferase with SET domain, S. cerevisiae; also called recombinant Rkm1; source: E. coli BL21(DE3), purified (Ni-NTA, Superdex 200)
T2 sequence (looked up): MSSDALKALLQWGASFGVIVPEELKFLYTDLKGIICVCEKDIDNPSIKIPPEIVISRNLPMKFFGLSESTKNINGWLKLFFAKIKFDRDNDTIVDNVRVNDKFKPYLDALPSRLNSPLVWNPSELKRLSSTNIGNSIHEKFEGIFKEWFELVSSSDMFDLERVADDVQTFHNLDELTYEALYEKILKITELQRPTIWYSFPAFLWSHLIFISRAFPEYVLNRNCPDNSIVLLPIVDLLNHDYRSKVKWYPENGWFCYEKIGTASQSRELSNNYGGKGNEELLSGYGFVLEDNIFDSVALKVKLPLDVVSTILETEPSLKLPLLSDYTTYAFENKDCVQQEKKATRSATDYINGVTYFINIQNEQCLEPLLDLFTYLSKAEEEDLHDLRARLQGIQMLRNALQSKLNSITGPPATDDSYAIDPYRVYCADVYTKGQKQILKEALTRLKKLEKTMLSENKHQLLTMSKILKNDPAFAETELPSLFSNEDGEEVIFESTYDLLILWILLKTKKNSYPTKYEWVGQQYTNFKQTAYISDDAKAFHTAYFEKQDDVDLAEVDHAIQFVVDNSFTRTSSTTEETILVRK

T3: GST-Kap123 (S. cerevisiae, UniProt P40069 1-1113)
T3 construct: importin Kap123, S. cerevisiae; also called karyopherin; importin; source: recombinant, purified on glutathione beads; not shown: GST, N-terminal, kept
T3 sequence (looked up): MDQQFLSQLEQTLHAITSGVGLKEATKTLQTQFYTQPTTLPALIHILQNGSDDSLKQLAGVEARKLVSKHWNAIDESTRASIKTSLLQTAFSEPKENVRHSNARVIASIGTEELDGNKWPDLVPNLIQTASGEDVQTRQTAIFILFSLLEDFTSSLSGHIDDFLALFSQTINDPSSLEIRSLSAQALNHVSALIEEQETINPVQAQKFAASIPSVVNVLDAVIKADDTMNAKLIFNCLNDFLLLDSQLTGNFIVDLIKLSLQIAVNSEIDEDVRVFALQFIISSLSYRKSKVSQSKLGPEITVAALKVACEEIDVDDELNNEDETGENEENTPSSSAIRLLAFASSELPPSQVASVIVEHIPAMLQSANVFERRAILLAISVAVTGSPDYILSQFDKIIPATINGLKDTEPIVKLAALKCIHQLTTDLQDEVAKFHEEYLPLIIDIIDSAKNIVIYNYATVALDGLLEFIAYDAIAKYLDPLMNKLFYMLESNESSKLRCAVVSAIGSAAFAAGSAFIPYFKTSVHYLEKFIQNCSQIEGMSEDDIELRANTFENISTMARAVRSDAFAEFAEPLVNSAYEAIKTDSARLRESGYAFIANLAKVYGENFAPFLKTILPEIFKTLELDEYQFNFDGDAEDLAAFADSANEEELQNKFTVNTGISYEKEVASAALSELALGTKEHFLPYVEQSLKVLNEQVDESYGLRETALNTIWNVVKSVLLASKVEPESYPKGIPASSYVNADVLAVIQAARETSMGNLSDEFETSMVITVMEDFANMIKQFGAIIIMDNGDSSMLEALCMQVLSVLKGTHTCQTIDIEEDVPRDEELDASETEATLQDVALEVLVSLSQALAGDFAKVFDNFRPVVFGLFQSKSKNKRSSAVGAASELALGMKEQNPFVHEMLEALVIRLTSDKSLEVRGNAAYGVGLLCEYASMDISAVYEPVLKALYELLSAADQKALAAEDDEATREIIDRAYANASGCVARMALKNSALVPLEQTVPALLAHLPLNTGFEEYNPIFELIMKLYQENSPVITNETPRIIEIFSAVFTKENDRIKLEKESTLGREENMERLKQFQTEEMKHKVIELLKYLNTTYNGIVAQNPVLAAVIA

B1: Bcp1-His6 (natural protein, S. cerevisiae, UniProt Q06338 1-283, looked up)
chain: MVQAIKLNDLKNRKRKNVEEENGSDESEIDISSTDSENEEEQNGEEEIVNIDFDFFGGNPEVDFHALKNLLRQLFGPQESTRIQLSSLADLILGSPTTTIKTDGKESDPYCFLSFVDFKANHLSDYVKYLQKVDMRLSTFFKTMIDSGNKNCALVLSERLINMPPEVVPPLYKITLEDVATALGDDKHYDFYIIVTRKYEVNFDTDDDTDSGKRNKNKDERSKKRVKADEVDYFHEEDRFFEKYAKIHFESEAKKGVISSYMILDHEGLVKSIDELETEISTW
notes: Bcp1, S. cerevisiae; also called full-length Bcp1; recombinant Bcp1

Legend:
Conditions in all cases: both partners purified
GST-Rkm1/uL14 complex = molecular target: T4, GST-Rkm1/uL14 complex (S. cerevisiae, UniProt Q08961 1-583; P0CX41 1-137); assay: pull-down; purified Bcp1 or bcp1∆N20 added to the GST-Rkm1/uL14 complex immobilised on glutathione beads, with or without 0.5 mM SAM, 30°C, 80 min; beads and supernatants analysed
T4 construct: Rkm1, S. cerevisiae; as the chain of m12; uL14 (Rpl23), S. cerevisiae; as the chain of m2; also called Rkm1/uL14 complex on glutathione beads; source: recombinant, purified with glutathione beads
T4 sequence (P0CX41 whole entry, one chain of several): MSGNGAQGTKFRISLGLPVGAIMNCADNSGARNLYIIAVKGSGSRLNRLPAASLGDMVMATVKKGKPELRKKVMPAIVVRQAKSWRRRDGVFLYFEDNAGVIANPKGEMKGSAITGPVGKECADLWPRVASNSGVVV

GST-Kap121 [1] = molecular target: T1, GST-Kap121; assay: pull-down; GST-Kap121 or GST-Kap123 on glutathione beads, incubated with recombinant proteins at 4°C for 1 h, three washes; Coomassie staining and western blotting
Bcp1-His6 [2] = molecular target: B1; assay: SEC; HiLoad 16/600 Superdex 200; Bcp1, uL14 and Rkm1 mixed; ratio from band intensity in SDS-PAGE and molecular weight estimated from SEC
Rkm1-His6 = molecular target: T2, Rkm1-His6; assay: as above
GST-Kap123 = molecular target: T3, GST-Kap123; assay: pull-down; GST-Kap121 or GST-Kap123 on glutathione beads, incubated with recombinant proteins at 4°C for 1 h, three washes; Coomassie staining and western blotting
GST-Kap121 [3] = molecular target: T1, GST-Kap121; assay: pull-down; release test: GST-Kap in complex with cargo immobilised on glutathione beads, purified Bcp1 or bcp1ΔN added for another hour at 4°C; what is left on the beads or in the supernatant by western blotting
Bcp1-His6 [4] = molecular target: B1; assay: pull-down; Bcp1-His6 in the supernatants of the methylation reactions (Fig. 6 A, lanes 7 and 8) purified on Ni-NTA beads; bound uL14 and its methylation by western blotting

Row | binding result (GST-Rkm1/uL14 complex) | binding result (GST-Kap121 [1]) | binding result (GST-Kap123) | Binder | further results
1 | binds | – | – | bcp1ΔN20 (domain or fragment, S. cerevisiae, UniProt Q06338 21-283, looked up, Bcp1, S. cerevisiae, truncated by 20 amino acids from the N terminus; also called bcp1(∆N20); Bcp1(∆N20); source: E. coli, purified) ENGSDESEIDISSTDSENEEEQNGEEEIVNIDFDFFGGNPEVDFHALKNLLRQLFGPQESTRIQLSSLADLILGSPTTTIKTDGKESDPYCFLSFVDFKANHLSDYVKYLQKVDMRLSTFFKTMIDSGNKNCALVLSERLINMPPEVVPPLYKITLEDVATALGDDKHYDFYIIVTRKYEVNFDTDDDTDSGKRNKNKDERSKKRVKADEVDYFHEEDRFFEKYAKIHFESEAKKGVISSYMILDHEGLVKSIDELETEISTW | –
2 | binds | binds | – | B1 | –
3 | – | – | binds | uL14 (recombinant) (natural protein, ribosomal protein uL14 (Rpl23), S. cerevisiae, encoded by RPL23A and RPL23B; No tag is named for recombinant uL14; for the Bcp1/uL14 complex its bacterial pellet was lysed together with that of Bcp1-His6; also called Rpl23; source: E. coli BL21(DE3), purified) not shown | stoichiometry N (Bcp1-His6 [2]): ~1; stoichiometry N (Rkm1-His6): ~1; binding result (GST-Kap121 [3]): binds
4 | – | – | – | methylated uL14 (natural protein, methylated at K106 and K110, uL14 (Rpl23), S. cerevisiae; Methylation stoichiometry of K106 and K110 ~98.6% by AspN digestion; also called uL14 methylated in vitro by Rkm1 with SAM; source: recombinant uL14 methylated on GST-Rkm1 beads with 0.5 mM SAM, 30°C, 80 min) not shown | binding result (Bcp1-His6 [4]): binds
5 | – | binds | binds | Rkm1/uL14 complex (complex, Rkm1, S. cerevisiae; uL14 (Rpl23), S. cerevisiae; as the chain of m2; also called uL14/Rkm1 complex; source: E. coli, recombinant, purified) chain 1: MSSDALKALLQWGASFGVIVPEELKFLYTDLKGIICVCEKDIDNPSIKIPPEIVISRNLPMKFFGLSESTKNINGWLKLFFAKIKFDRDNDTIVDNVRVNDKFKPYLDALPSRLNSPLVWNPSELKRLSSTNIGNSIHEKFEGIFKEWFELVSSSDMFDLERVADDVQTFHNLDELTYEALYEKILKITELQRPTIWYSFPAFLWSHLIFISRAFPEYVLNRNCPDNSIVLLPIVDLLNHDYRSKVKWYPENGWFCYEKIGTASQSRELSNNYGGKGNEELLSGYGFVLEDNIFDSVALKVKLPLDVVSTILETEPSLKLPLLSDYTTYAFENKDCVQQEKKATRSATDYINGVTYFINIQNEQCLEPLLDLFTYLSKAEEEDLHDLRARLQGIQMLRNALQSKLNSITGPPATDDSYAIDPYRVYCADVYTKGQKQILKEALTRLKKLEKTMLSENKHQLLTMSKILKNDPAFAETELPSLFSNEDGEEVIFESTYDLLILWILLKTKKNSYPTKYEWVGQQYTNFKQTAYISDDAKAFHTAYFEKQDDVDLAEVDHAIQFVVDNSFTRTSSTTEETILVRK chain 2: not shown | –
6 | – | binds | – | bcp1ΔN10 (domain or fragment, S. cerevisiae, UniProt Q06338 11-283, looked up, Bcp1, S. cerevisiae, truncated by 10 amino acids from the N terminus; also called bcp1(∆N10); bcp1∆N10; source: E. coli, purified) KNRKRKNVEEENGSDESEIDISSTDSENEEEQNGEEEIVNIDFDFFGGNPEVDFHALKNLLRQLFGPQESTRIQLSSLADLILGSPTTTIKTDGKESDPYCFLSFVDFKANHLSDYVKYLQKVDMRLSTFFKTMIDSGNKNCALVLSERLINMPPEVVPPLYKITLEDVATALGDDKHYDFYIIVTRKYEVNFDTDDDTDSGKRNKNKDERSKKRVKADEVDYFHEEDRFFEKYAKIHFESEAKKGVISSYMILDHEGLVKSIDELETEISTW | –
